# Data taken from the supplement of paper PMC7877785.
# ± gives the uncertainty stated by the source.
# Assay: self-splicing fitness, log relative to wild type (ln ratio); higher = more splicing; Tetrahymena group I intron in knt gene, E. coli kanamycin selection, DiMSum; sequences stand for … in CUCUCU…GGAGGGAAAAGUUAUCAGGCAUGCACCUGGUAGCUAGUCUUUAAACCAAUAGAUUGCAUCGGUUUAAAAGGCAAGACCGUCAAAUUGCGGGAAAGGGGUCAACAGCCGUUCAGUACCAAGUCUCAGGGGAAACUUUGAGAUGGCCUUGCAAAGGGUAUGGUAAUAAGCUGACGGACAUGGUCCUAACCACGCAGCCAAGUCCUAAGUCAACAGAUCUUCUGUUGAUAUGGAUGCAGUUCACAGACUAAAUGUCGGUCGGGGAAGAUGUAUUCUUCUCAUAAGAUAUAGUCGGACCUCUCCUUAAUGGGAGCUAGCGGAUGAAGUGAUGCAACACUGGAGCCGCUGGGAACUAAUUUGUAUGCGAAAGUAUAUUGAUUAGUUUUGGAGUACUCGUGGUCG
# How it was run: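 The eight P1ex-region nucleotides of an intron in the knt kanamycin-resistance gene on pET-22b(+) were all randomised and the library put into E. coli BL21(DE3). Six replicate transformations were grown overnight at 37°C or 30°C on LB agar with or without 25 μg/mL kanamycin, together with 100 μg/mL carbenicillin, 50 μM IPTG and 0.2% rhamnose. Colonies were pooled and amplicon-sequenced on an Illumina HiSeq 2500. Fitness from DiMSum is the error-weighted combination of wild-type-normalised replicate fold changes, kanamycin over none.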
Sequence,self-splicing fitness (ln) (30 °C),self-splicing fitness (ln) (37 °C)
CAAAAGCAAUAUUACGAACU,-2.51 ± 0.19,-1.3 ± 0.21
CAAAAGCAAUAUUACGAAGG,-1.87 ± 0.11,-0.758 ± 0.13
CAAAAGCAAUAUUACGAAUU,-3.52 ± 0.18,-2.27 ± 0.22
CAAAAGCAAUAUUACGACAG,-0.12 ± 0.062,-0.154 ± 0.083
CAAAAGCAAUAUUACGACUA,-1.52 ± 0.13,-0.952 ± 0.12
CAAAAGCAAUAUUACGACUU,-1.83 ± 0.098,-0.224 ± 0.098
CAAAAGCAAUAUUACGAGAA,-1.51 ± 0.24,-2.47 ± 0.25
CAAAAGCAAUAUUACGAGCC,-3.49 ± 0.3,
CAAAAGCAAUAUUACGAGCG,-0.129 ± 0.077,0.342 ± 0.097
CAAAAGCAAUAUUACGAUAG,-0.0755 ± 0.065,0.3 ± 0.083
CAAAAGCAAUAUUACGAUCG,0.0933 ± 0.07,0.514 ± 0.09
CAAAAGCAAUAUUACGCACA,-1.75 ± 0.1,-0.746 ± 0.11
CAAAAGCAAUAUUACGCACG,-1.5 ± 0.098,-0.59 ± 0.12
CAAAAGCAAUAUUACGCCAA,-3.4 ± 0.36,-2.1 ± 0.24
CAAAAGCAAUAUUACGCCAG,-0.849 ± 0.075,-1.32 ± 0.09
CAAAAGCAAUAUUACGCCCC,-3.27 ± 0.3,
CAAAAGCAAUAUUACGCUUU,-3.96 ± 0.21,-2.55 ± 0.17
CAAAAGCAAUAUUACGGAUA,-3.27 ± 0.31,-1.81 ± 0.16
CAAAAGCAAUAUUACGGGAA,-2.69 ± 0.23,-1.13 ± 0.2
CAAAAGCAAUAUUACGGGGU,-4.06 ± 0.2,-2.7 ± 0.18
CAAAAGCAAUAUUACGGGUG,-0.689 ± 0.046,-0.361 ± 0.076
CAAAAGCAAUAUUACGGUGC,-3.76 ± 0.24,-2.8 ± 0.24
CAAAAGCAAUAUUACGGUUU,-2.93 ± 0.11,-1.21 ± 0.1
CAAAAGCAAUAUUACGUACG,-0.125 ± 0.061,0.143 ± 0.07
CAAAAGCAAUAUUACGUACU,-2.74 ± 0.11,-0.995 ± 0.09

Sequence,self-splicing fitness (ln) (30 °C),self-splicing fitness (ln) (37 °C)
CAAAAGCAAUAUUACGUAUC,-4.08 ± 0.21,-1.02 ± 0.15
CAAAAGCAAUAUUACGUGAG,-1.06 ± 0.04,-0.328 ± 0.069
CAAAAGCAAUAUUACGUGCG,-1 ± 0.051,-0.35 ± 0.063
CAAAAGCAAUAUUACGUUCU,-1.3 ± 0.14,-0.926 ± 0.14
CAACAGCAAUAUUACGACGG,-0.0366 ± 0.058,0.186 ± 0.085
CAACAGCAAUAUUACGAGAU,-3.74 ± 0.2,-1.79 ± 0.15
CAACAGCAAUAUUACGAGGG,-2.38 ± 0.073,-2.2 ± 0.094
CAACAGCAAUAUUACGAGGU,-4.43 ± 0.29,-2.24 ± 0.17
CAACAGCAAUAUUACGAUAG,-0.377 ± 0.052,0.653 ± 0.07
CAACAGCAAUAUUACGAUUG,-2.22 ± 0.063,-1.42 ± 0.073
CAACAGCAAUAUUACGCAGU,-2.78 ± 0.19,-3.62 ± 0.3
CAACAGCAAUAUUACGCAUU,-3.14 ± 0.091,-1.79 ± 0.089
CAACAGCAAUAUUACGCCAU,-3.25 ± 0.11,-2.94 ± 0.14
CAACAGCAAUAUUACGCCCG,-0.408 ± 0.098,0.465 ± 0.12
CAACAGCAAUAUUACGCGUG,-4.02 ± 0.22,-3.31 ± 0.16
CAACAGCAAUAUUACGCUCC,-1.72 ± 0.098,-0.675 ± 0.14
CAACAGCAAUAUUACGCUGA,-3.74 ± 0.2,-3.02 ± 0.2
CAACAGCAAUAUUACGGGUA,-3.03 ± 0.12,-1.22 ± 0.084
CAACAGCAAUAUUACGGGUG,-1.65 ± 0.051,-0.569 ± 0.057
CAACAGCAAUAUUACGGUAU,-3.52 ± 0.1,-1.9 ± 0.09
CAACAGCAAUAUUACGGUUC,-1.89 ± 0.075,-1.34 ± 0.1
CAACAGCAAUAUUACGUACG,-0.0141 ± 0.079,0.194 ± 0.11
CAACAGCAAUAUUACGUCAU,-3.92 ± 0.12,-1.86 ± 0.1
CAACAGCAAUAUUACGUCUU,-1.48 ± 0.061,-0.62 ± 0.07
CAACAGCAAUAUUACGUUUA,-1.62 ± 0.086,-0.887 ± 0.073

Sequence,self-splicing fitness (ln) (30 °C),self-splicing fitness (ln) (37 °C)
CAAGAGCAAUAUUACGAAAC,-2.91 ± 0.36,
CAAGAGCAAUAUUACGAAGA,-1.75 ± 0.35,-3.14 ± 0.43
CAAGAGCAAUAUUACGAAUA,-2.52 ± 0.34,-2.28 ± 0.36
CAAGAGCAAUAUUACGAUGG,-1.1 ± 0.091,-0.943 ± 0.077
CAAGAGCAAUAUUACGCAUG,-3.69 ± 0.44,-2.53 ± 0.29
CAAGAGCAAUAUUACGCCUA,,-1.91 ± 0.43
CAAGAGCAAUAUUACGCGGG,-2.7 ± 0.25,-2.89 ± 0.34
CAAGAGCAAUAUUACGCGGU,-3.05 ± 0.17,-1.81 ± 0.21
CAAGAGCAAUAUUACGCUAG,,-2.98 ± 0.35
CAAGAGCAAUAUUACGGACU,,-2.75 ± 0.28
CAAGAGCAAUAUUACGGCCU,-3.5 ± 0.25,-1.27 ± 0.33
CAAGAGCAAUAUUACGGCGU,-3.47 ± 0.34,-1.92 ± 0.21
CAAGAGCAAUAUUACGGCUU,-3.51 ± 0.39,-2.36 ± 0.17
CAAGAGCAAUAUUACGGGAA,-2.06 ± 0.11,-3.01 ± 0.18
CAAGAGCAAUAUUACGGGUC,-3.71 ± 0.21,-2.17 ± 0.17
CAAGAGCAAUAUUACGGUAG,-1.18 ± 0.076,-1.01 ± 0.12
CAAGAGCAAUAUUACGGUCC,-2.01 ± 0.35,-1.76 ± 0.33
CAAGAGCAAUAUUACGUCCU,-3.32 ± 0.43,-2.24 ± 0.29
CAAGAGCAAUAUUACGUCGC,-4.54 ± 0.38,-2.38 ± 0.29
CAAGAGCAAUAUUACGUUAG,-1.97 ± 0.11,-0.995 ± 0.12
CAAUAGCAAUAUUACGACGU,-2.06 ± 0.11,-0.956 ± 0.11
CAAUAGCAAUAUUACGACUC,-3.34 ± 0.24,-0.701 ± 0.12
CAAUAGCAAUAUUACGACUG,-0.326 ± 0.063,-0.0987 ± 0.081
CAAUAGCAAUAUUACGAGGG,-3.54 ± 0.16,-0.649 ± 0.13
CAAUAGCAAUAUUACGCAGA,-3.78 ± 0.42,-2.14 ± 0.18

Sequence,self-splicing fitness (ln) (30 °C),self-splicing fitness (ln) (37 °C)
CAAUAGCAAUAUUACGCAGU,-3.56 ± 0.26,-2.12 ± 0.21
CAAUAGCAAUAUUACGCCAU,-3.21 ± 0.34,-2.43 ± 0.26
CAAUAGCAAUAUUACGCGCG,-0.577 ± 0.094,-0.206 ± 0.1
CAAUAGCAAUAUUACGCUAU,-2.69 ± 0.33,
CAAUAGCAAUAUUACGCUCG,-0.561 ± 0.074,-0.204 ± 0.092
CAAUAGCAAUAUUACGCUUA,-2.06 ± 0.1,-1.74 ± 0.11
CAAUAGCAAUAUUACGGAAC,-3.98 ± 0.33,-3.27 ± 0.47
CAAUAGCAAUAUUACGGAGA,-2.75 ± 0.33,-2.08 ± 0.43
CAAUAGCAAUAUUACGGAUU,-3.94 ± 0.2,-3.55 ± 0.3
CAAUAGCAAUAUUACGGGGC,-2.73 ± 0.22,-2.45 ± 0.23
CAAUAGCAAUAUUACGGUAG,-1.34 ± 0.097,-0.488 ± 0.1
CAAUAGCAAUAUUACGUCAA,-3.04 ± 0.22,-2.01 ± 0.28
CAAUAGCAAUAUUACGUCUG,-0.324 ± 0.1,-0.58 ± 0.13
CAAUAGCAAUAUUACGUGCG,-0.75 ± 0.072,-0.0882 ± 0.08
CAAUAGCAAUAUUACGUUCA,-3.43 ± 0.25,-2.59 ± 0.24
CACAAGCAAUAUUACGAAUC,-4.04 ± 0.46,-2.37 ± 0.18
CACAAGCAAUAUUACGAGUA,-1.9 ± 0.085,-0.487 ± 0.078
CACAAGCAAUAUUACGCCGG,-0.875 ± 0.081,-0.35 ± 0.095
CACAAGCAAUAUUACGCCUC,-2.86 ± 0.2,-1.95 ± 0.23
CACAAGCAAUAUUACGCUGC,-5.23 ± 0.32,-2.87 ± 0.21
CACAAGCAAUAUUACGGAGA,-3.31 ± 0.17,-2.65 ± 0.2
CACAAGCAAUAUUACGGAUG,-2.59 ± 0.095,-0.904 ± 0.087
